Experimental data from the supplement of paper PMC9170038.

Tested on: MS2 coat protein
Test: apparent KD of MS2 coat protein; designed switch direction (-1 OFF switch, 1 ON switch): -1; higher = weaker reporter binding
Summary of the method: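 Apparent KD, taken as the median over clusters for each design, was obtained by curve-fitting normalised cluster fluorescence. Designed RNA switches had been transcribed on Illumina chips by stalled E. coli RNA polymerase and titrated with SNAP-549-labelled MS2 coat protein, doubling from 0.7 or 1.5 nM to 3 µM.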

[1] = Eterna round: R95, input ligand: microRNA oligo, concentration not stated
[2] = input ligand: microRNA oligo, concentration not stated
[3] = Eterna round: R95, input ligand: FMN 200 uM
[4] = Eterna round: R95, input ligand: none

Sequence | apparent KD of MS2 coat protein (input ligand: FMN 200 uM) | apparent KD of MS2 coat protein (input ligand: none) | apparent KD of MS2 coat protein [1] | further results
AAGCCCUGAGGAUAUCCCAACUCGCACAUGAGGAUCACCCAUGUCCUCCUCCGGGCUUCGGGAGAAGGCAGGUCUC [Megrez-7.8] (Eterna round: R97, puzzle: Exclusion 5) | 186 nM | 25.7 nM |  | 
AAGGAUAGAGGAUAUACAUAGAUACAGAUUCAUGUGGAACUACAUGAGGAUCACCCAUGUAGAAGGCUAUCCUA [Fiskers Ex 2 - 9] (puzzle: Exclusion 2) |  |  | 35.9 nM | 
AAGGAUAGAGGAUAUAUAUAGAUACAGAUUCAUGUAGAACUACAUGAGGAUCACCCAUGUAGAAGGCUAUCCUA [Fiskers Ex 2 - 10] (puzzle: Exclusion 2) |  |  | 14.7 nM | 
AAGGGUGCUUUCGGAACGACAUGAGGAUCACCCAUGUAGACUGAGGAUAUCUACUUCUAAGGACGGGAGAAGGCAGUGUAAUGU [Ex NG3 #70] (Eterna round: R96, puzzle: Exclusion NG 3) | 44.5 nM | 39.8 nM |  | apparent KD of MS2 coat protein [2]: 29 nM
AAGGUGUUAGGAUAUCGAAGGUUGUGGCAGGCGGGAAUUUGCGAGAAGGAACAUGAGGAUCACCCAUGUAAAAU [JR_Exclu4_Sub042] (puzzle: Exclusion 4) |  |  | 25 nM | 
AAGUAACAUGAGGAUCACCCAUGUUAGGAUAUCUCGGCCACAGGAUCCCUGUGAAGCCAGAGAAGGAGCGGGUG [Ceraso] (Eterna round: R97, puzzle: Exclusion 1) | 169 nM | 202 nM |  | 
AAGUAGGAUGUUAGGAUAUCGCCCUCGCAAUAGGGCGAGAAGGGACAUGAGGAUCACCCAUGUAGGCGAUAGAA [Laedesed] (Eterna round: R97, puzzle: Brourd's mod of Exclusion 4) | 29.3 nM | 16.9 nM |  | 
AAGUAGUGACAGGAUAUUGUUCAUGAUAUGGAACAAGAAGGGUUAACAUGAGGAUCACCCAUGUAUCCUCCGUG [Eternabot (L2) Solution 14] (Eterna round: R97, puzzle: Exclusion 6) | 401 nM | 44.9 nM |  | 
AAGUAUCAUGUAGGAUAUGCUAACCGAACGUUAGCAGAAGGACAUGAGGAUCACCCAUGUUCUCAUCUGUAAGAACAGAUGUCU [Ex NG1 #6] (Eterna round: R96, puzzle: Exclusion NG 1) | 27.9 nM | 15.5 nM |  | apparent KD of MS2 coat protein [2]: 12.6 nM
AAUAACAAGCUGAUCCUAAACAUGAGGAUCACCCAUGUGCUCGUCUUGUAAAGUACUAUCACGAAAGUGAUAGUACA [MOD7 of my MOD of Eli's v1-59 (mutation at 11 A to U)] (Eterna round: R97, puzzle: Sensor, turn-off variant 1) | 118 nM | 142 nM |  | 
AAUAACAGAGGAUAUACUAUUUUAUGUAUUUAUUAUUUUAAACAUGAGGAUCACCCAUGUAGAAGGCUGAUUAA [JMF 42] (puzzle: Exclusion 2) |  |  | 30.8 nM | 
AAUAACAGAGGAUAUACUGUUUUAUGUAUUUAUUAUUUUGAACAUGAGGAUCACCCAUGUAGAAGGCUGAUUAA [JMF 48] (puzzle: Exclusion 2) |  |  | 29.6 nM | 
AAUAACUGAGGAUAUACUAUAAUAUGAAUAAAAUAAAUAAAACAUGAGGAUCACCCAUGUAGAAGGCAGAAUAA [JMF's Not so obvious solution 9] (puzzle: Exclusion 2) |  |  | 17.8 nM | apparent KD of MS2 coat protein [3]: 23.2 nM; apparent KD of MS2 coat protein [4]: 24.1 nM
AAUAAGAAGUAAGGAUAUCUGAAAGGAAGUGUAAGAGAAGGUACGGUGACGUCAGAACGACAUGAGGAUCACCCAUGUAAAGAA [PowerStrip EXNG 1.11] (Eterna round: R96, puzzle: Exclusion NG 1) | 79 nM | 93.9 nM |  | apparent KD of MS2 coat protein [2]: 69.6 nM
AAUAAGCUAGGAUAUACAUGAGGAUCACCCAUGUGAGGGCACGGCCGGCGCGGGCCCGGUAGAAGGAGUCAUAA [Exc;s3-VI] (puzzle: Exclusion 3) |  |  | 26.4 nM | 
AAUAAGGGAGGAUAUACAUGAGGAUCACCCAUGUUUGUAAUUUAAUUCGGGAGUAUUAGUAGAAGGCCCAAUAA [lam1] (Eterna round: R97, puzzle: Exclusion 3) | 278 nM | 59.5 nM |  | 
AAUAAUUGUGACUUGGGUGACAUGAGGAUCACCCAUGUCACAAGCUUGUUGCUCGCCUUGUAAUUAACCCAUGUCAC [LRO Sensor-off var1-27 mod of Stov1-13-A1 by Brourd] (Eterna round: R97, puzzle: Sensor, turn-off variant 1) | 22.2 nM | 20.8 nM |  | 
AAUACAAGCUAUUGAUCCCACAUGAGGAUCACCCAUGUACCUGGCCGUGAGACCAGGUUUACAAUAGCUCGUCUUAU [Sensor-V1 #48] (Eterna round: R97, puzzle: Sensor, turn-off variant 1) | 107 nM | 93.8 nM |  | 
AAUACAAGCUAUUGAUCCCACAUGAGGAUCACCCAUGUAGGAGGCGGUGACACCUCCUUUACGAUAGCUCGUCUUAU [Sensor-V1 #53] (Eterna round: R97, puzzle: Sensor, turn-off variant 1) | 213 nM | 219 nM |  | 
AAUACAAGCUAUUGAUCCCACAUGAGGAUCACCCAUGUAUAUGCCGGUGACACCUGCAUGACGAUAGCUCGUCUUAU [Sensor-V1 #59] (Eterna round: R97, puzzle: Sensor, turn-off variant 1) | 577 nM | 758 nM |  | 
AAUACCCUGUUAGGAUAUAAUACCGAAGGAGUAUUAGAAGGGACAGUAAGGUACAUGAGGAUCACCCAUGUGAGAAUCUGUGCC [Edanxeve] (Eterna round: R96, puzzle: Exclusion NG 1) | 107 nM | 75.4 nM |  | apparent KD of MS2 coat protein [2]: 65.3 nM
AAUAGCAAGUAGAUCCUAAACAUGAGGAUCACCCAUGUGCUCGUCUUGUAAAGUACUAUCACGAAAGUGAUAGUACA [Sensor 3, v1 - 57] (puzzle: Sensor v3, turn-off variant 1) |  |  | 300 nM | apparent KD of MS2 coat protein [3]: 151 nM; apparent KD of MS2 coat protein [4]: 233 nM
AAUCCACAUGAGGAUCACCCAUGUGAGGAUAUGAUACUAUGUACUUCGGUACAUAGUAUCAGAAGGCACAUAAA [Ex1-3: 51] (Eterna round: R96, puzzle: Exclusion 1) | 153 nM | 27.8 nM |  | apparent KD of MS2 coat protein [2]: 25.8 nM
AAUCCACAUGAGGAUCACCCAUGUGAGGAUAUGAUACUAUGUACUUCGGUACAUAGUAUCAGAAGGCACAUAAA [Ex1-3: 51] (puzzle: Exclusion 1) |  |  | 28.4 nM | 
AAUGAUUGACGAGGAUAUUGUGUUAGAUCACGACGAGAAGGCGUCUGUCACAUGAGGAUCACCCAUGUGAGCCUGGUGGAUGGG [Ex NG1 #79] (Eterna round: R96, puzzle: Exclusion NG 1) | 41.7 nM | 26.7 nM |  | apparent KD of MS2 coat protein [2]: 22.3 nM
AAUGAUUGAUGAGGAUAUUGUGGUGAAACACGACGAGAAGGCAUAUGUCACAUGAGGAUCACCCAUGUGAGCUUUGUGGAUAUA [Ex NG1 #67] (Eterna round: R96, puzzle: Exclusion NG 1) |  |  |  | apparent KD of MS2 coat protein [2]: 18.3 nM
AAUGCCAGAGGAUAUACAUGAGGAUCACCCAUGUUAAAUGAUCCUGUGCUAGAUGCACGUAGAAGGCUGUAAAA [EX3 A.8] (Eterna round: R97, puzzle: Exclusion 3) | 15.5 nM | 12.9 nM |  | 
